The numbers were not newly measured in article PMC6435036 (Molecular pharmaceutics, 2017), which cites them from elsewhere.

The conditions of the series: in humans.

On to “ApoA-I: endogenous apolipoprotein A-I, main protein of HDL”, for which the “half-life of endogenous ApoA-I protein” value is listed as 3.3 days.
